Tests used:
HLA-A*02:01 [1] = assay: IEDB peptide-MHC binding, purified MHC/competitive/radioactivity; filed as Kd, often an IC50 or EC50 that approximates it; ≥ and ≤ were set here for values at or beyond the usual limits of such assays; conditions: source organism: Vaccinia virus WR
HLA-B*51:01 = assay: as above; conditions: source organism: Vaccinia virus WR
HLA-B*07:02 = assay: as above; conditions: source organism: Vaccinia virus WR
HLA-A*33:01 = assay: as above; conditions: source organism: Vaccinia virus WR
HLA-B*53:01 = assay: as above; conditions: source organism: Vaccinia virus WR
HLA-B*54:01 = assay: as above; conditions: source organism: Vaccinia virus WR
HLA-A*68:02 [2] = assay: as above; conditions: source organism: Vaccinia virus WR
HLA-A*31:01 = assay: as above; conditions: source organism: Vaccinia virus WR
HLA-A*02:03 [3] = assay: as above; conditions: source organism: Vaccinia virus WR
HLA-A*03:01 [4] = assay: as above; conditions: source organism: Vaccinia virus WR
HLA-A*68:01 = assay: as above; conditions: source organism: Vaccinia virus WR
HLA-A*11:01 [5] = assay: as above; conditions: source organism: Vaccinia virus WR
HLA-B*35:01 = assay: as above; conditions: source organism: Vaccinia virus WR
HLA-A*02:06 = assay: as above; conditions: source organism: Vaccinia virus WR
HLA-A*02:02 = assay: as above; conditions: source organism: Vaccinia virus WR
HLA-B*57:01 [6] = assay: as above
HLA-A*02:01 [7] = assay: IEDB peptide-MHC binding, purified MHC/competitive/fluorescence; ≥ and ≤ were set here for values at or beyond the usual limits of such assays
HLA-B*15:01 [8] = assay: as above
HLA-A*03:01 [9] = assay: as above
HLA-A*11:01 [10] = assay: as above
HLA-A*02:01 [11] = assay: IEDB peptide-MHC binding, purified MHC/competitive/fluorescence; filed as Kd, often an IC50 or EC50 that approximates it; ≥ and ≤ were set here for values at or beyond the usual limits of such assays; conditions: source organism: Homo sapiens
HLA-A*69:01 = assay: as above; conditions: source organism: Homo sapiens
HLA-A*02:03 [12] = assay: as above
HLA-A*24:02 = assay: IEDB peptide-MHC binding, purified MHC/competitive/fluorescence; ≥ and ≤ were set here for values at or beyond the usual limits of such assays
HLA-B*39:01 = assay: IEDB peptide-MHC binding, purified MHC/competitive/fluorescence; filed as Kd, often an IC50 or EC50 that approximates it; ≥ and ≤ were set here for values at or beyond the usual limits of such assays; conditions: source organism: Cryptosporidium parvum Iowa II
HLA-B*15:01 [13] = assay: as above; conditions: source organism: Cryptosporidium parvum Iowa II
HLA-B*18:01 = assay: as above; conditions: source organism: Cryptosporidium parvum Iowa II
HLA-B*57:01 [14] = assay: as above; conditions: source organism: Cryptosporidium parvum Iowa II
HLA-A*26:01 = assay: as above; conditions: source organism: Cryptosporidium parvum Iowa II
HLA-B*46:01 = assay: as above; conditions: source organism: Cryptosporidium parvum Iowa II
HLA-B*27:03 = assay: as above; conditions: source organism: Cryptosporidium parvum Iowa II
HLA-A*68:02 [15] = assay: as above; conditions: source organism: Cryptosporidium parvum Iowa II
HLA-A*03:01 [16] = assay: as above; conditions: source organism: Cryptosporidium parvum Iowa II
HLA-A*29:02 = assay: IEDB peptide-MHC binding, purified MHC/direct/fluorescence; filed as Kd, often an IC50 or EC50 that approximates it; ≥ and ≤ were set here for values at or beyond the usual limits of such assays; conditions: source organism: Giardia lamblia ATCC 50803
HLA-A*01:01 = assay: as above; conditions: source organism: Giardia lamblia ATCC 50803
[17] = source organism: Dengue virus 1 Brazil/97-11/1997
[18] = source organism: Zaire ebolavirus
[19] = source organism: Vaccinia virus
[20] = source organism: Sudan ebolavirus

For EVVMAYVGIK, which Kd (HLA-A*02:01 [1]) is on record?
The Kd was 4 µM.

What about the Kd (HLA-B*51:01) of the same sequence?
The Kd was no less than 23.2 µM.

And the Kd (HLA-B*07:02)?
The Kd was 9.98 µM.

And the Kd (HLA-A*33:01)?
The Kd was 1.17 µM.

And the Kd (HLA-B*53:01)?
The Kd was 6.77 µM.

What about the Kd (HLA-B*54:01) of the same sequence?
The Kd was 7.93 µM.

What about the Kd (HLA-A*68:02 [2]) of the same sequence?
The Kd was 2.58 µM.

And the Kd (HLA-A*31:01)?
The Kd was 0.786 µM.

What about the Kd (HLA-A*02:03 [3]) of the same sequence?
The Kd was 15.9 µM.

And the Kd (HLA-A*03:01 [4])?
Its Kd is 0.413 µM.

And the Kd (HLA-A*68:01)?
The Kd was 0.00668 µM.

What about the Kd (HLA-A*11:01 [5]) of the same sequence?
Its Kd is 0.0977 µM.

And the Kd (HLA-B*35:01)?
The Kd was no less than 23.3 µM.

What about the Kd (HLA-A*02:06) of the same sequence?
The Kd was 15 µM.

What about the Kd (HLA-A*02:02) of the same sequence?
Its Kd is 12 µM.

Which Kd (HLA-B*57:01 [6]; source organism: Dengue virus 4 Philippines/H241/1956) does the source give for FASGRKSITL here?
Its Kd is 6.17 µM.

Which Kd (HLA-B*57:01 [6]; [17]) does the source give for GTSGSPIVNR here?
Its Kd is 0.104 µM.

What does the source list for IALGVATAH?
IC50 (HLA-A*02:01 [7]; [18]): ≥ 223 µM; IC50 (HLA-B*15:01 [8]; [18]): 61.1 µM; IC50 (HLA-A*03:01 [9]; [18]): ≥ 160 µM; IC50 (HLA-A*11:01 [10]; [18]): 10.8 µM

Which Kd (HLA-A*02:01 [11]) does the source give for IRVEGNLRV here?
The Kd was no less than 20 µM.

And the Kd (HLA-A*69:01)?
The Kd was no less than 20 µM.

What about the Kd (HLA-A*02:03 [12]; source organism: Homo sapiens) of the same sequence?
The Kd was no less than 20 µM.

KFMAILQHH was tested. Which IC50 (HLA-B*15:01 [8]; [18]) did it give?
Its IC50 is no less than 327 µM.

And the IC50 (HLA-A*24:02; [18])?
Its IC50 is 16.6 µM.

And the IC50 (HLA-A*03:01 [9]; [18])?
The IC50 was no less than 301 µM.

KNKLYLVDY was tested. Which IC50 (HLA-B*15:01 [8]; source organism: Vaccinia virus WR) did it give?
Its IC50 is 34.2 µM.

How did the Kd (HLA-B*39:01) turn out when KSWLVHWSL was run?
Its Kd is no less than 20 µM.

And the Kd (HLA-B*15:01 [13])?
Its Kd is no less than 20 µM.

And the Kd (HLA-B*18:01)?
The Kd was no less than 20 µM.

What about the Kd (HLA-B*57:01 [14]) of the same sequence?
Its Kd is 0.0328 µM.

And the Kd (HLA-A*26:01)?
The Kd was no less than 20 µM.

What about the Kd (HLA-B*46:01) of the same sequence?
The Kd was no less than 20 µM.

And the Kd (HLA-B*27:03)?
The Kd was no less than 20 µM.

And the Kd (HLA-A*68:02 [15])?
The Kd was no less than 20 µM.

What about the Kd (HLA-A*02:03 [12]; source organism: Cryptosporidium parvum Iowa II) of the same sequence?
The Kd was no less than 20 µM.

And the Kd (HLA-A*03:01 [16])?
Its Kd is no less than 20 µM.

What does the source list for LMLCLHHAY?
IC50 (HLA-A*02:01 [7]; [18]): 38.1 µM; IC50 (HLA-B*15:01 [8]; [18]): 22.3 µM

How did the Kd (HLA-A*29:02) turn out when LTAHYCFLY was run?
Its Kd is no more than 0.001 µM.

What about the Kd (HLA-A*01:01) of the same sequence?
The Kd was 0.007 µM.

How did the IC50 (HLA-A*02:01 [7]; [19]) turn out when MMIQTRAAD was run?
Its IC50 is no less than 104 µM.

What about the IC50 (HLA-B*15:01 [8]; [19]) of the same sequence?
The IC50 was no less than 77.2 µM.

How did the IC50 (HLA-B*15:01 [8]; [18]) turn out when SQGREAAVS was run?
The IC50 was 26.9 µM.

For SQIPSSSPT, which IC50 (HLA-A*02:01 [7]; [20]) is on record?
Its IC50 is 30 µM.

What about the IC50 (HLA-B*15:01 [8]; [20]) of the same sequence?
The IC50 was 8.51 µM.

What does the source list for SSYYATSYL?
IC50 (HLA-A*02:01 [7]; [20]): 3.16 µM; IC50 (HLA-B*15:01 [8]; [20]): 24.2 µM; IC50 (HLA-A*24:02; [20]): 0.955 µM; IC50 (HLA-A*03:01 [9]; [20]): 18.5 µM; IC50 (HLA-A*11:01 [10]; [20]): 2.7 µM

TIIGTNGNH was tested. Which IC50 (HLA-B*15:01 [8]; [20]) did it give?
The IC50 was no less than 150 µM.

Which Kd (HLA-B*57:01 [6]; source organism: Dengue virus 4 Dominica/814669/1981) does the source give for TTRLENVMW here?
Its Kd is 0.0146 µM.

With TTRMENLLW as the sequence, how does the Kd (HLA-B*57:01 [6]; source organism: Dengue virus 3 Martinique/1243/1999) read?
Its Kd is 0.00523 µM.

TTSQKTTWLP was tested. Which Kd (HLA-B*57:01 [6]; [17]) did it give?
Its Kd is 0.446 µM.

How did the Kd (HLA-B*57:01 [6]; source organism: Dengue virus 2 Jamaica/1409/1983) turn out when VVRLLTKPW was run?
The Kd was 0.0279 µM.
